Experimental data from publication PMC7407374, “Addressing the Molecular Mechanism of Longitudinal Lamin Assembly Using Chimeric Fusions” (Cells, 2020).

B1: LA 22-70-Eb1 (domain or fragment, UniProt P02545 22-70, looked up)
chain: SPTRITRLQEKEDLQELNDRLAVYIDRVRSLETENAGLRLRITESEEVVDFYFGKLRNIELICQENEGENDPVLQRIVDILYATDE
notes: human lamin A, residues 22-70: truncated head domain, coil1A and the first three residues of linker L1; also called N-terminal fragment; N-terminal construct; source: E. coli Rosetta 2 (DE3) pLysS, purified (Ni column, tag cleavage, second Ni column, SEC); not shown: His6, N-terminal, cleaved; SUMO, N-terminal, cleaved
B2: LA 17-70-Eb1 (domain or fragment, UniProt P02545 17-70, looked up)
chain: SSTPLSPTRITRLQEKEDLQELNDRLAVYIDRVRSLETENAGLRLRITESEEVVDFYFGKLRNIELICQENEGENDPVLQRIVDILYATDE
notes: human lamin A, residues 17-70: truncated head domain, coil1A and the first three residues of linker L1; also called N-terminal fragment; N-terminal construct; source: E. coli Rosetta 2 (DE3) pLysS, purified (Ni column, tag cleavage, second Ni column, SEC); not shown: His6, N-terminal, cleaved; SUMO, N-terminal, cleaved

How the values were obtained:
[1] = molecular target: Gp7_(F40C)-LA 327-403 (bacteriophage φ29 | human) (UniProt P13848); experiment: SEC-MALS; inline MALS (Dawn Heleos) on Superdex 200 Increase 10/300 GL at 20 °C; individual proteins and 1:1 mixtures; 150 mM NaCl with 10 mM Hepes pH 7.5 or 10 mM TEA pH 7.0
[2] = molecular target: the molecule itself; experiment: as above

Row | Molecule | stoichiometry N [1] | stoichiometry N [2]
1 | Gp7_(F40C)-LA 327-403 (from UniProt P13848 1-49; P02545 327-403) (domain or fragment) | 2 | –
2 | B1 | – | 2
3 | B2 | – | 2
